# Results as given in the DeepSol protein solubility set.
# Assay: soluble on expression in E. coli; label from the status in PepcDB or PDB records
row,Sequence,soluble on expression in E. coli
1,MSDQPRPTVIITGASSGVGLYATKALANRGWHVIMACRNLEKAEQAAKNLQIPPEAYTILHLDLSSLASVRGFVESFRALNRPLRALVCNAAVYYPLLKEPIYSVDGYEITVATNHLGHFLLINLLLEDLKNSPESDKRLVILGTVTANRKELGGKIPIPAPPDLGNLEGFEKGFKKPIAMINGKPFKSGKAYKDSKLCNMLTARELHRRFHESTGIVFNSLYPGCVADTPLFRHHFPLFQKLFPLFQKKITGGYVSQELAGERVAMVVADPEFRQSGVHWSWGLEHHHHHH,soluble
2,MSVEGLGKDFCGAIIPDNFFPIEKLRNYTQMGLIRDFAKGSAVIMPGEEITSMIFLVEGKIKLDIIFEDGSEKLLYYAGGNSLIGKLYPTGNNIYATAMEPTRTCWFSEKSLRTVFRTDEDMIFEIFKNYLTKVAYYARQVAEMNTYNPTIRILRLFYELCSSQGKRVGDTYEITMPLSQKSIGEITGVHHVTVSRVLACLKRENILDKKKNKIIVYNLGELKHLSEQTSYYSDPNSSSVDKLAAALDHH,soluble
3,MSLRQRFVLDTTAITDAGLRIKEGYESLCESAAEVLDLIALARLKLDISCYIPYPSVYTELTSFLKRYGCDEEIFTKLDTWLVKKTPNRYEVKIPAAIFYEYIITVRQKMNRGRRLAEEYILESSAITAKLEDKSKIEEEIGALISKFRDKYRAVMRQGILDSAPDLDVLLLAKELEAGVVSSDAGIRKWSERLGLRFVEAAKFPRMLKEYLKLMGSKDIVGWFESEEDEGHHHHHH,not soluble
4,KKYVVFDMDGTLTTTDFEDVKQYAGEFFNSNYVAKMYPDVDNVVKYYASKGYGILYLTARPYWLSEESQTWLWKNGFPMGLLHTYTGGDVLLGEEAESFKAGYLNQLKSQGIEFDYGFGNEKTDVEAYSNIGIAKSNIFTIGKNRGIDGSVSIVSYTDYLKQLSGN,not soluble
5,MEMVNAEAKQSVPLLTPYKMGRFNLSHRVVLAPLTRQKSYGSVPQPHAILYYSQRTSPGGFLIAEATGVSDTAQGYPDTPGIWTKEHVEAWKPIVDAVHAKGGIFFCQIWHVGRVSNRGFQPRRQAPISCTGKPIMPQMRANGIDEARFTPPRRLSIEEIPGIVNDFRLAARNAMEAGFDGVEIHGAHGYLIDQFMKDKVNDRTDEYGGSLQNRCKFALEVVDAVAKEIGPDRVGIRLSPFADYMESGDTNPEALGLYMVESLNKYGILYCHMIEPRMKTVGEIAACSHTLMPMREAFKGTFISAGGFTREDGNEAVAKGRTDLVAYGRWFLANPDLPKRFQLDAPLNKYNRSTFYTSDPVVGYTDYPSLESTA,soluble
6,INALVIGDLMLDQYLWGKAERISPEAPVQVVDVTREEIRIGGAGNVANNLVALGCRVSVASVVGGDENGTILLHAFSGKGIDVTGIVEDPSRTTSRKTRVLASNQQIVRIDRESRDEIGPDNERRIVDYLNAHGDRFNVILVSDYLKGVLTPTLLAEVIAFARKREIPVVVDPKGSDYAKYRGATVLTPNRKEAEAASGIAIRDDESLCRAGERLLETADLTALVITRSEEGMSLFLRGGQVVHIPTYAREVFDVTGAGDTVLAVLGMALAGGVGFADGARLANVAAGVAVGKVGTSTVSPAEIVGSLG,not soluble
7,MRGEVKKIIEAIGDIFIGHEDVIRKVLAVALVNGNILFEDYPGLGKTLLAKAFAKILGLKFKRIQFTPDLLPADIIGTKVWKPEKGAFEVVKGPIFTNILLADEINRAPPKTQSALLEAMEERQVTIEGETFKLERPFFIIATQNPLELEGTYPLPEAQLDRFLVRLNIGYPRNEEDELEILKARLRWGKDDPTSDISPIISREDFIRMQEEVERGVIIHDDILRYIVRLVRRIREDERIEAGPSPRGGLALMKLAKANAFIEGRSYVIPDDVKYFAVEALAHRIVLKPEYSLERGIAEEIIREVLEEVPVPKDIRY,soluble
8,MSLENYLEEELIIGGIEINYLYVCKTKLWYFVRGITMEQESDFVDLGKFLHEKSYFGEEKEVQIGSIKIDFIKKRDVIEIHEVKRGKQMEKAHIMQVLYYIYYLNSLGIKSKAILHYPKLKEIKEIELKENNKEEIKRAIKEIEYIKSLKEPPEPIYQKICKNCAYYELCFIEGHHHHHH,soluble
9,MFFIKDLSLNITLHPSFFGPRMKQYLKTKLLEEVEGSCTGKFGYILCVLDYDNIDIQRGRILPTDGSAEFNVKYRAVVFKPFKGEVVDGTVVSCSQHGFEVQVGPMKVFVTKHLMPQDLTFNAGSNPPSYQSSEDVITIKSRIRVKIEGCISQVSSIHAIGSIKEDYLGAI,soluble
10,MPPYFSPKSEAPICGYCQLTFSQTGSMTRHRDRLHTKNHTCLICVSNCEGAPILGESIKKHLQHAHGYVDVQSCSCCHWIFENKIQLRTHLDAMKATGQPGDEVVLAKGTFAPGTLSQAAILQSKAYSANRQQKCQQSLKVDSGGFNDLSETQLKFILDNYSQIVGELESPNPKISGCRKRKCGMTIQHVLRDDDFKKIELC,not soluble
11,RTAAELMGRCSSKGLGISDIMFINERASRSEEEIREGLLHIWSVMEACVETSLKREGVLPGGLKVRRRSPDWLERLLKEDKDRNDPKYWQEWVNLIALAVNEENASGGRVVTAPTNGAAGIIPAVLYYALNYAPGMDKASQADKDDVVVKFLLAAGAVGVLYKEQASISGAEVGCQGEVGSASSMAAAGLAEVMGGSPGQVENAAEIAMEHNLGLTCDPIGGLVQIPCIERNAIAAAKAINAAKMALWGDGTHRVSLDEVIVTMRETGKDMSSKYKETAMGGLAVN,not soluble
12,LDLNNPQYNDVYEINYDFIYSLRNIMDYVVRGDEWALDDYYEALDIRNDDLRWVLSDVQYRRFLGAEYFYRPIYVTGGRWNFRIYINYPNRSLFYFGVPYHYRTYCGAHYRPHIHHVSYYRGRYNNLVHYPTPYRVRDQRVFHSYRRSDFGSVRFRPNTSVRPHNAPTRPGTSGRPGTTSR,not soluble
13,GMNLANIVQRGWEALGAGDFDTLVTDYVEKMIFIMPGQADVLKGRQAFRSALDNLGEILPPGFEITGLRQLEGENEIVSIVEWKSDKMIASQLSVLFKFEGDQIYEERWFVDTEQWKSVF,soluble
14,MSLKIYLFKPYDVIGFGGLKNFSAGETHIQKSIFPPPIMRFFHIFNSVYGVFLYKDGNLFLPVPSDCLVKRKEESGKAKISPLEFPPLIRGDLEAYERANGFISFSDLMNKYAKNIDGFKIYLLEEFLKKESRVGITMDKERRVVRSIKEINRKEEKGLLYSQDFFRFNDGVKLAVLGEINKDIVISGKQYFRMGGEGKIVSFKHTEHINSFLEGKIKIKNGNYYKFYCLTHAYINNGIIESKIQTICIEGINFEVEWLYNGGVEYVSGYNKPFLEMLRPGSVLILKAKNEGEIQRLNQISTNVPISNIKNFLNRGWNSGIIVEGVKEGHHHHHH,soluble
15,MAAQKKIPLRKCVVTGEMKPKREMVRIVRSKEGEVSIDPTGKKAGRGAYITLDPECILQAKKKNILARHLKADIDDAIYDELLALAEKEKQAGHEA,soluble
16,MVKWQATLSTTEPYNYIGIQNVRQGNRNTEVLEAILVENALPLDLTGCEVFFESVIDNKYPIQRAAKIVNAKKGIIQYTFDEYSMQSLHRQEAYFSIHKGDNLIGSTQNFSYFVVNAASKTEGEMGSYWQSIEDLIADMTAFINENKGDFTAWMNARKEEFEKWRKNQQDTFEAWRNGQETDYLKWFESIKDILKTIDPGGTMLAELMDARVDIQGVRHNSLSERLLADMNYLYHRLEERLYTIKYGNVNTLEILEDDSFSKNHEVEVLGTVNHPIEEGALIIATVDDSKQNVFTIEGVDNG,not soluble
17,MNPDKTVLSCHNPEWRGERPAPSLIARCAQLAMLLEVSASPKPGNVDREHNYPDTCFEHFVASSVAVYPVFELAAKSTGRIGQLLRSAVYESSAWQQGGNTHFGAFLLLIPLAMAAGEISREQGEQPGCGKTFFRIEAEEFENLASHAHAFVRETDCEDAVEFYRAFGHAGVRVNSVEEFDLEDPEATSDLRNQNITLYSLMEIAKGYDLIANEWTSGFGRCLEGAKIILDFMDARNCREEALAGGSVSICSGTGINEAVVYTFLKLLSKHRDTFIQTKFDAETADYVSSRAGEVLSGWEISGKKAGDFASILPRIQEFDSELLDKRINPGSTADIIIAALFIALLGGLRF,not soluble
18,MAHHHHHHMRNSLRLRLSSTSSSLLRSTFWLRQCGSGGCGFSGGPGGYPTDADALAKILTQAKKGSFNGSSSSPSDFFDGRFVGGSPTMDPAMLQDMHQKLNQSLTPEVRESMKAMMESIQRGDGMPQMGMMAFGVGENEKGKKVARGAKLMFDPSTGKLSKDFVEKQLEDDDPVLPKETVGDYNTEGAIEVEFEEDARKEASVRENIPEAEVIVEEVPREK,not soluble
19,MGSDKIHHHHHHMSIMNFSEYQTQALKTDQIPAVEGTELMIPLLGLVGEVGSLMTEYKKHLRDGDAHKLFKEGIAEELGDMLWYISNLASKFNLNLEEIAEDNLRKCRDRWGWRDSAQIEDKGTTYIFDNDFPENESLPRQFEVEITEISKDNSIKMKAFINKKQVGNDLTDNSYTSDGYRFHDVFHFSYAAVLGWSAVTRSMLKRKRKSNSSIDEVEDGGRAIAIEEGISALIFSYAKNHGFLERVSTLDYQILKTIKNMTCHLEVSQCSLGDWEKAILMGYDVWRQVEKNRGGRVVLDLDARLITYLKKSSLCSASVEIKH,not soluble
20,MKSLQALFGGTFDPVHYGHLKPVETLANLIGLTRVTIIPNNVPPHRPQPEANSVQRKHMLELAIADKPLFTLDERELKRNAPSYTAQTLKEWRQEQGPDVPLAFIIGQDSLLTFPTWYEYETILDNAHLIVCRRPGYPLEMAQPQYQQWLEDHLTHNPEDLHLQPAGKIYLAETPWFNISATIIRERLQNGESCEDLLPEPVLTYINQQGLYR,soluble
21,MGSDKIHHHHHHMNNIIVGMGEALWDVLPEGKKIGGAPANFAYHVSQFGFDSRVVSAVGNDELGDEIMEVFKEKQLKNQIERVDYPTGTVQVTLDDEGVPCYEIKEGVAWDNIPFTDELKRLALNTRAVCFGSLAQRNEVSRATINRFLDTMPDIDGQLKIFDINLRQDFYTKEVLRESFKRCNILKINDEELVTISRMFGYPGIDLQDKCWILLAKYNLKMLILTCGINGSYVFTPGVVSFQETPKVPVADTVGAGDSFTAAFCASILNGKSVPEAHKLAVEVSAYVCTQSGAMPELPVILKDRLL,not soluble
22,MATISSLGSSGLELEGILEKLQAAEEKKLTLITARQASYETRISAYSKIQAAVEAVQKAAATLGSIDTLSAVKAVVSGDGLSVKTAAGAVPGQYTVNIDKLATAQNLQSGELDSRTDKHGTGGSIEIVQKDGTTTTVTLGEDTSLNGIVKAINGTDGLDVRATVISDGNGKHYLMLNNKTEGTEAAVTRITVSGNQEVADILDFDAANAGASNLTVQLAAQKAELTINGIPVVSDTNTVETAIDGLTLTLTKQTAAPLTVTVSSDPSVAATAVNDFVKAYNGLQTTIADLTAFDVKAEKQSALTGDGTTRNIQSAIAAALRVATGEGTLRTLSQLGITTDPKTGSLKTDTEKLEAALRDNPADVARIFSGPFGLGEKVKLATEQILGDEGSIKIRQEGLEETLESLQNQYDRQKLSIAATIEAYRKQFVQLDVFVTQMNNTSNYLSQQFAALSGTKK,not soluble
23,MIKRGFPAVLDENTEILILGSLPSDESIRKQQYYGNPGNDFWRLVGHAIGENLQDMAYEKKLKTLKHNRIGLWDVFKAGSREGSQDSKIGDEEINDFSGLKEMVPKLRLICFNGRKAGEYEPLLRGMGYETKVLPSSSGANRRFSKNRESEWEAVFRHLEHHHHHH,soluble
24,MRITIYTRNDCVQCHATKRAMENRGFDFEMINVDRVPEAAEALRAQGFRQLPVVIAGDLSWSGFRPDMINRLHPAPHAASA,soluble
